B1: MPP6_HUMAN (protein, UniProt Q99547 1-160, looked up)
M-phase phosphoprotein 6: MAAERKTRLSKNLLRMKFMQRGLDSETKKQLEEEEKKIISEEHWYLDLPELKEKESFIIEEQSFLLCEDLLYGRMSFRGFNPEVEKLMLQMNAKHKAEEVEDETVELDVSDEEMARRYETLVGTIGKKFARKRDHANYEEDENGDITPIKAKKMFLKPQD
B2: ADAS_HUMAN (protein, UniProt O00116 59-658, looked up)
Alkyldihydroxyacetonephosphate …: KARRAASAATAAPTATPAAQESGTIPKKRQEVMKWNGWGYNDSKFIFNKKGQIELTGKRYPLSGMGLPTFKEWIQNTLGVNVEHKTTSKASLNPSDTPPSVVNEDFLHDLKETNISYSQEADDRVFRAHGHCLHEIFLLREGMFERIPDIVLWPTCHDDVVKIVNLACKYNLCIIPIGGGTSVSYGLMCPADETRTIISLDTSQMNRILWVDENNLTAHVEAGITGQELERQLKESGYCTGHEPDSLEFSTVGGWVSTRASGMKKNIYGNIEDLVVHIKMVTPRGIIEKSCQGPRMSTGPDIHHFIMGSEGTLGVITEATIKIRPVPEYQKYGSVAFPNFEQGVACLREIAKQRCAPASIRLMDNKQFQFGHALKPQVSSIFTSFLDGLKKFYITKFKGFDPNQLSVATLLFEGDREKVLQHEKQVYDIAAKFGGLAAGEDNGQRGYLLTYVIAYIRDLALEYYVLGESFETSAPWDRVVDLCRNVKERITRECKEKGVQFAPFSTCRVTQTYDAGACIYFYFAFNYRGISDPLTVFEQTEAAAREEILANGGSLSHHHGVGKLRKQWLKESISDVGFGMLKSVKEYVDPNNIFGNRNLL
B3: KT33A_HUMAN (protein, UniProt O76009 1-404, looked up)
Keratin, type I cuticular …: MSYSCGLPSLSCRTSCSSRPCVPPSCHGCTLPGACNIPANVSNCNWFCEGSFNGSEKETMQFLNDRLASYLEKVRQLERDNAELENLIRERSQQQEPLVCASYQSYFKTIEELQQKILCSKSENARLVVQIDNAKLASDDFRTKYETELSLRQLVESDINGLRRILDELTLCRSDLEAQVESLKEELLCLKQNHEQEVNTLRCQLGDRLNVEVDAAPTVDLNQVLNETRSQYEALVETNRREVEQWFATQTEELNKQVVSSSEQLQSYQAEIIELRRTVNALEIELQAQHNLRDSLENTLTESEARYSSQLSQVQRLITNVESQLAEIRSDLERQNQEYQVLLDVRARLECEINTYRSLLESEDCKLPSNPCATTNACDKSTGPCISNPCGLRARCGPCNTFGY
B4: ACINU_HUMAN (protein, UniProt Q9UKV3 1-1341, looked up)
Apoptotic chromatin …: MWRRKHPRTSGGTRGVLSGNRGVEYGSGRGHLGTFEGRWRKLPKMPEAVGTDPSTSRKMAELEEVTLDGKPLQALRVTDLKAALEQRGLAKSGQKSALVKRLKGALMLENLQKHSTPHAAFQPNSQIGEEMSQNSFIKQYLEKQQELLRQRLEREAREAAELEEASAESEDEMIHPEGVASLLPPDFQSSLERPELELSRHSPRKSSSISEEKGDSDDEKPRKGERRSSRVRQARAAKLSEGSQPAEEEEDQETPSRNLRVRADRNLKTEEEEEEEEEEEEDDEEEEGDDEGQKSREAPILKEFKEEGEEIPRVKPEEMMDERPKTRSQEQEVLERGGRFTRSQEEARKSHLARQQQEKEMKTTSPLEEEEREIKSSQGLKEKSKSPSPPRLTEDRKKASLVALPEQTASEEETPPPLLTKEASSPPPHPQLHSEEEIEPMEGPAPAVLIQLSPPNTDADTRELLVSQHTVQLVGGLSPLSSPSDTKAESPAEKVPEESVLPLVQKSTLADYSAQKDLEPESDRSAQPLPLKIEELALAKGITEECLKQPSLEQKEGRRASHTLLPSHRLKQSADSSSSRSSSSSSSSSRSRSRSPDSSGSRSHSPLRSKQRDVAQARTHANPRGRPKMGSRSTSESRSRSRSRSRSASSNSRKSLSPGVSRDSSTSYTETKDPSSGQEVATPPVPQLQVCEPKERTSTSSSSVQARRLSQPESAEKHVTQRLQPERGSPKKCEAEEAEPPAATQPQTSETQTSHLPESERIHHTVEEKEEVTMDTSENRPENDVPEPPMPIADQVSNDDRPEGSVEDEEKKESSLPKSFKRKISVVSATKGVPAGNSDTEGGQPGRKRRWGASTATTQKKPSISITTESLKSLIPDIKPLAGQEAVVDLHADDSRISEDETERNGDDGTHDKGLKICRTVTQVVPAEGQENGQREEEEEEKEPEAEPPVPPQVSVEVALPPPAEHEVKKVTLGDTLTRRSISQQKSGVSITIDDPVRTAQVPSPPRGKISNIVHISNLVRPFTLGQLKELLGRTGTLVEEAFWIDKIKSHCFVTYSTVEEAVATRTALHGVKWPQSNPKFLCADYAEQDELDYHRGLLVDRPSETKTEEQGIPRPLHPPPPPPVQPPQHPRAEQREQERAVREQWAEREREMERRERTRSEREWDRDKVREGPRSRSRSRDRRRKERAKSKEKKSEKKEKAQEEPPAKLLDDLFRKTKAAPCIYWLPLTDSQIVQKEAERAERAKEREKRRKEQEEEEQKEREKEAERERNRQLEREKRREHSRERDRERERERERDRGDRDRDRERDRERGRERDRRDTKRHSRSRSRSTPVRDRGGRR
B5: HNRPQ_HUMAN (protein, UniProt O60506 2-623, looked up)
Heterogeneous nuclear …: ATEHVNGNGTEEPMDTTSAVIHSENFQTLLDAGLPQKVAEKLDEIYVAGLVAHSDLDERAIEALKEFNEDGALAVLQQFKDSDLSHVQNKSAFLCGVMKTYRQREKQGTKVADSSKGPDEAKIKALLERTGYTLDVTTGQRKYGGPPPDSVYSGQQPSVGTEIFVGKIPRDLFEDELVPLFEKAGPIWDLRLMMDPLTGLNRGYAFVTFCTKEAAQEAVKLYNNHEIRSGKHIGVCISVANNRLFVGSIPKSKTKEQILEEFSKVTEGLTDVILYHQPDDKKKNRGFCFLEYEDHKTAAQARRRLMSGKVKVWGNVGTVEWADPIEDPDPEVMAKVKVLFVRNLANTVTEEILEKAFSQFGKLERVKKLKDYAFIHFDERDGAVKAMEEMNGKDLEGENIEIVFAKPPDQKRKERKAQRQAAKNQMYDDYYYYGPPHMPPPTRGRGRGGRGGYGYPPDYYGYEDYYDYYGYDYHNYRGGYEDPYYGYEDFQVGARGRGGRGARGAAPSRGRGAAPPRGRAGYSQRGGPGSARGVRGARGGAQQQRGRGVRGARGGRGGNVGGKRKADGYNQPDSKRRQTNNQNWGSQPIAQQPLQGGDHSGNYGYKSENQEFYQDTFGQQWK
B6: CKAP4_HUMAN (protein, UniProt Q07065 1-602, looked up)
Cytoskeleton-associated …: MPSAKQRGSKGGHGAASPSEKGAHPSGGADDVAKKPPPAPQQPPPPPAPHPQQHPQQHPQNQAHGKGGHRGGGGGGGKSSSSSSASAAAAAAAASSSASCSRRLGRALNFLFYLALVAAAAFSGWCVHHVLEEVQQVRRSHQDFSRQREELGQGLQGVEQKVQSLQATFGTFESILRSSQHKQDLTEKAVKQGESEVSRISEVLQKLQNEILKDLSDGIHVVKDARERDFTSLENTVEERLTELTKSINDNIAIFTEVQKRSQKEINDMKAKVASLEESEGNKQDLKALKEAVKEIQTSAKSREWDMEALRSTLQTMESDIYTEVRELVSLKQEQQAFKEAADTERLALQALTEKLLRSEESVSRLPEEIRRLEEELRQLKSDSHGPKEDGGFRHSEAFEALQQKSQGLDSRLQHVEDGVLSMQVASARQTESLESLLSKSQEHEQRLAALQGRLEGLGSSEADQDGLASTVRSLGETQLVLYGDVEELKRSVGELPSTVESLQKVQEQVHTLLSQDQAQAARLPPQDFLDRLSSLDNLKASVSQVEADLKMLRTAVDSLVAYSVKIETNENNLESAKGLLDDLRNDLDRLFVKVEKIHEKV
B7: K1H1_HUMAN (protein, UniProt Q15323 1-416, looked up)
Keratin, type I cuticular Ha1: MPYNFCLPSLSCRTSCSSRPCVPPSCHSCTLPGACNIPANVSNCNWFCEGSFNGSEKETMQFLNDRLASYLEKVRQLERDNAELENLIRERSQQQEPLLCPSYQSYFKTIEELQQKILCTKSENARLVVQIDNAKLAADDFRTKYQTELSLRQLVESDINGLRRILDELTLCKSDLEAQVESLKEELLCLKSNHEQEVNTLRCQLGDRLNVEVDAAPTVDLNRVLNETRSQYEALVETNRREVEQWFTTQTEELNKQVVSSSEQLQSYQAEIIELRRTVNALEIELQAQHNLRDSLENTLTESEARYSSQLSQVQSLITNVESQLAEIRSDLERQNQEYQVLLDVRARLECEINTYRSLLESEDCNLPSNPCATTNACSKPIGPCLSNPCTSCVPPAPCTPCAPRPRCGPCNSFVR

We go through seven molecules from PMC10540216, “Activity Guided Azide-methyllysine Photo-trapping for Substrate Profiling of Lysine Demethylases” (Journal of the American Chemical Society, 2023).

This experiment concerns KDM4A-I71AzF. Briefly: CASI: photo-crosslinking with HEK293T cell extracts, StrepTactin enrichment and LC-MS/MS proteomics.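 Further: lysates from HEK293T cells pretreated with a KDM4 inhibitor to raise proteome methylation, affinity-purified after ±UV, gel-resolved, trypsin-digested, with exclusive unique peptides per protein averaged per condition.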 It is filed as binding, human. Conditions: sheet "Final results but with 0.01".
Consider B1, for which the “Fold change (+UV/-UV)” value turned out to be 200.

Regarding B2, the “Fold change (+UV/-UV)” value amounted to 200.

Regarding B3, the “Fold change (+UV/-UV)” value is 300.

With B4, the “Fold change (+UV/-UV)” value is reported as 2.

As to B5, the “Fold change (+UV/-UV)” value is on record as 200.

Regarding B6, the “Fold change (+UV/-UV)” value is 200.

As for B7, the “Fold change (+UV/-UV)” value worked out at 800.
